Source: PMC12197871 (Protein Science : A Publication of the Protein Society, 2025)
Numbering of substitutions follows the chain as printed.

Molecular target: GsLDH (Geobacillus stearothermophilus, UniProt P00344)
Test: GsLDH kinetic studies
Assay type: biochemical

Chain of GsLDH (P00344 whole entry): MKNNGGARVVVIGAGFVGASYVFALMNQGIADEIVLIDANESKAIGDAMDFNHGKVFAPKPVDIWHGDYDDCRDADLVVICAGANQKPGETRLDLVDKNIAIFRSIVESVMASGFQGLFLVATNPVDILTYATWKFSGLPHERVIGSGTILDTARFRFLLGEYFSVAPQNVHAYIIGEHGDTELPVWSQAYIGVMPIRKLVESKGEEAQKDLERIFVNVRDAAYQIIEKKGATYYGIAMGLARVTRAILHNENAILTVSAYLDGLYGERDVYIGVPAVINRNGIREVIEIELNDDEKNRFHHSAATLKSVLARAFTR

B1: Gln189Leu: GsLDH single mutant Gln189Leu, located at the dimer–dimer interface (protein, UniProt P00344 1-317, looked up, variant Q189L)
L-lactate dehydrogenase: MKNNGGARVVVIGAGFVGASYVFALMNQGIADEIVLIDANESKAIGDAMDFNHGKVFAPKPVDIWHGDYDDCRDADLVVICAGANQKPGETRLDLVDKNIAIFRSIVESVMASGFQGLFLVATNPVDILTYATWKFSGLPHERVIGSGTILDTARFRFLLGEYFSVAPQNVHAYIIGEHGDTELPVWSLAYIGVMPIRKLVESKGEEAQKDLERIFVNVRDAAYQIIEKKGATYYGIAMGLARVTRAILHNENAILTVSAYLDGLYGERDVYIGVPAVINRNGIREVIEIELNDDEKNRFHHSAATLKSVLARAFTR
- fold higher substrate inhibition (lower K i) compared to the WT (with FBP): 20 fold
- k cat (with FBP (5 mM)): 83 s⁻¹
- k cat/K m or k cat/K 0.5 (with FBP (5 mM)): 106000 ± 19000 M⁻¹ s⁻¹
- k cat (without FBP): 73 ± 12 s⁻¹
- k cat/K m or k cat/K 0.5 (without FBP): 32000 ± 4000 M⁻¹ s⁻¹
- n (Hill coefficient) (without FBP): 1.4 ± 0.1

B2: WT: wild‐type L‐lactate dehydrogenase from Geobacillus stearothermophilus (UniProt P00344), N‐terminal His‐tagged (protein, UniProt P00344 1-317, looked up)
L-lactate dehydrogenase: B1 L-lactate dehydrogenase with L189Q
modifications: N-terminal His-tag
- k cat (with FBP (5 mM)): 64 s⁻¹
- k cat/K m or k cat/K 0.5 (with FBP (5 mM)): 144000 ± 67000 M⁻¹ s⁻¹
- k cat (without FBP): 118 ± 34 s⁻¹
- k cat/K m or k cat/K 0.5 (without FBP): 43000 ± 13000 M⁻¹ s⁻¹
- n (Hill coefficient) (without FBP): 1.5 ± 0.1

B3: Triple mutant: previously reported GsLDH triple mutant with substitutions Arg104Cys, Gln189Leu and Asn293Ser (protein, UniProt P00344 1-317, looked up, variant R104C Q189L N293S)
L-lactate dehydrogenase: B1 L-lactate dehydrogenase with R104C, N293S
- k cat (with FBP (5 mM)): 94 s⁻¹
- k cat/K m or k cat/K 0.5 (with FBP (5 mM)): 156000 ± 59000 M⁻¹ s⁻¹
- k cat (without FBP): 57 ± 8 s⁻¹
- k cat/K m or k cat/K 0.5 (without FBP): 141000 ± 18000 M⁻¹ s⁻¹
